This is an account of results in publication PMC11898703.

The target in the assay is FliW-T25 (Clostridioides difficile) (UniProt Q18CX4). As to the kind of experiment: two-hybrid; bacterial two-hybrid (BACTH) in E. coli BTH101 read by β-galactosidase assay on cell lysates (10^10 CFU, bead beating in Z buffer, ONPG, ΔOD420 over 1 h).

As for TcdR-T18 (natural protein), the fold increase in β-galactosidase activity over the TcdR-T18 + T25 control was 2 fold.
